These results are taken from article PMC6270119, “Application of Reductive ^13C-Methylation of Lysines to Enhance the Sensitivity of Conventional NMR Methods” (Molecules, 2013).

Where only a bound is given, the exact number is not on record here.

Data set [1] is described as follows: Dynamic light scattering particle size analysis. To be noted: DLS, 0.25 mM (250 μM) FM-HVR in PBS, room temperature. In kind it is physicochemical. The text has this:
This roughly corresponds to the monomeric form of peptide. However, upon introduction of farnesylation and methylation the hydrodynamic radius of the peptide increased to 8.15 ± 0.46 nm at a four times lower concentration as shown in Figure 2B. This hydrodynamic radius corresponded to a particle of 471.92 ± 63.75 kDa in size. Observation of higher order assemblies of FM-HVR allowed us to conclude that post-translational modifications in K-Ras can lead to aggregation through hydrophobic interactions.
For studying aggregation of peptides, dynamic light scattering experiments were performed on a DynaPro-801 molecular sizing instrument (Wyatt Technology Europe, Dernbach, Germany). The peptide samples were dialyzed against PBS. The sample volume of 250 μL was used for the experiments. […] Samples were centrifuged at 12000 rpm for 10 min before experiments. Analysis of the data was carried out using Dynamics software.

For data set [2], the target named is fully post-translationally modified (farnesylated and methylated) hypervariable region peptide of K-Ras4B (human). The data set is described as follows: pyrene fluorescence (critical aggregation concentration); peptide at different concentrations with 2 µM pyrene in PBS; excitation scans 315-360 nm, emission 393 nm; ratio I334/I337 against the logarithm of the peptide concentration.

In data set [3] the target is reductively methylated calmodulin (UniProt P0DP23). The data set is described as follows: NMR titration; 1H-13C HSQC of 1 µM reductively methylated CaM with 0, 0.5, 1 and 1.5 µM FM-HVR (peptide not aggregated); 25 °C; 50 mM Tris-citrate pH 6.5, 50 mM NaCl, 5 mM MgCl2, 10 mM β-mercaptoethanol, 10 mM CaCl2.
Data set [4] shares this target. The data set is described as follows: NMR titration; 1H-13C HSQC of 70 µM reductively methylated CaM with FM-HVR at 0:1, 1:1, 2:1 and 3:1 molar ratios (aggregated FM-HVR); 25 °C; 50 mM Tris-citrate pH 6.5, 50 mM NaCl, 5 mM MgCl2, 10 mM β-mercaptoethanol, 10 mM CaCl2.

In the case of `COC(=O)[C@H](CSC/C=C(\C)CC/C=C(\C)CCC=C(C)C)NC(=O)C1CCC(CN2C(=O)CC(SC[C@H](NC(=O)[C@H](CCCCN)NC(=O)[C@H](CO)NC(=O)[C@H](CCCCN)NC(=O)[C@H](CCCCN)NC(=O)[C@H](CCCCN)NC(=O)[C@H](CCCCN)NC(=O)[C@H](CCCCN)NC(=O)[C@H](CCCCN)NC(=O)CNC(=O)[C@H](CC(=O)O)NC(=O)[C@H](CCCCN)NC(=O)[C@H](CO)NC(=O)[C@H](CCSC)NC(=O)[C@H](CCCCN)NC(=O)[C@H](CCC(=O)O)NC(=O)[C@@H](N)CCCCN)C(=O)O)C2=O)CC1` (some centres unmarked) [FM-HVR], in data set [1], the hydrodynamic radius was determined as 8.15 ± 0.46 nm and the “particle mass corresponding to hydrodynamic radius” value is on record as 471.92 ± 63.75 kDa.

Take “fully post-translationally modified (farnesylated and methylated) hypervariable region peptide of K-Ras4B”: the critical aggregation concentration in data set [2] is more than 10 µM. In addition, the FM-HVR to CaM titration ratio at saturation (FM-HVR per CaM) in data set [3] stood at 1; in data set [4] it was 2.
